Measurements published in patent publication US20090298755A1 (NEW ENGLAND MEDICAL CENTER HOSPITALS, published 2009).
Ends that are not written are not given here.

How the values were obtained:
NK1 receptor (rat brain) = target: T1, NK1 receptor (rat brain) (rat, UniProt P14600 1-407); assay: radioligand competition, [125I]BH-SP on crude rat brain plasma membranes, room temperature, 75 min, filtration
T1 construct: whole, on cells; Native receptor in crude rat brain plasma membrane homogenate, not on intact cells; also called SP receptor
Experimental: For binding assays to opioid receptors, frozen rat brains (−80° C.) were homogenized in 40 volumes of standard Tris buffer (50 mM Tris HCl (pH 7.4), 0.2 mg/ml BSA, 2.5 mM EDTA, 40 μg/m bacitracin, 30 μg/ml bestatin and 5 mM MgCl₂) and centrifuged at 15,000×g for 20 minutes. 100 mM NaCl was added to the buffer, in order to remove endogenous ligands, and the centrifugation was repeated. After a wash with standard buffer, the membrane preparation was finally resuspended in 10 volumes of incubation buffer (standard buffer with 4 μg/ml leupeptin and 2 μg/ml chymostatin). […] The brain homogenates were used on the day of preparation.
After filtration, the radioactivity was determined on a gamma-counter.

µ receptor (rat brain) = target: T2, µ receptor (rat brain) (rat, UniProt P33535 1-398); assay: radioligand competition, [3H]DAMGO on crude rat brain plasma membranes, 4 C, 90 min, filtration
T2 construct: whole, on cells; Native receptor in crude rat brain plasma membrane homogenate, not on intact cells; also called µ opioid receptor; opioid receptor
T2 sequence (P33535 whole entry): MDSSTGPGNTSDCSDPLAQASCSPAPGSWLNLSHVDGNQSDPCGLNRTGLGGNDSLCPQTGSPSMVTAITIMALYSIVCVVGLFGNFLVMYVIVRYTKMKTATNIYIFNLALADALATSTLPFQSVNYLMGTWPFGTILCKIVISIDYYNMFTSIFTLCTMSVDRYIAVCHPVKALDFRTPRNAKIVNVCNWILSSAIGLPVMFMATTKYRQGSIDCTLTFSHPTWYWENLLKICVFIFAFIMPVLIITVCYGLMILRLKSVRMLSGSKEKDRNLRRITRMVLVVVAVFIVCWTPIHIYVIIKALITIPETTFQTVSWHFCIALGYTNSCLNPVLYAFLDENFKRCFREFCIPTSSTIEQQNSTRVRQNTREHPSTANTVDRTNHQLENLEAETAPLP

T1 sequence (P14600 whole entry): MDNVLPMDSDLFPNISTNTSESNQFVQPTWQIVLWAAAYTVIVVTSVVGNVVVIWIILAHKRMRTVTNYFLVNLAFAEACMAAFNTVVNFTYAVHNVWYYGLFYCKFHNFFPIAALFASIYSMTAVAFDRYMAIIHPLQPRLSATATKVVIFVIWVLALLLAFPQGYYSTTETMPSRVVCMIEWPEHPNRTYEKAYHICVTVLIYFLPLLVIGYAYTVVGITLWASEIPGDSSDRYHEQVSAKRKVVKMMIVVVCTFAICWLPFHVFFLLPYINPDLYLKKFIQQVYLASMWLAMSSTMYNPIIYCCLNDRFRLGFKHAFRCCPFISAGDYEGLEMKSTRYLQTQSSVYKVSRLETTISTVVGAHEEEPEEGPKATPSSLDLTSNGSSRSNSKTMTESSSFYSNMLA

Kd (NK1 receptor (rat brain)): ~200 nM
Kd (µ receptor (rat brain)): ~300 nM
B1: ESP7 (peptide)
peptide: YPFFGLM-NH2
notes: Chimera of endomorphin-2 at the N-terminus and SP(7-11) at the C-terminus; also called chimeric peptide ESP7; Tyr-Pro-Phe-Phe-Gly-Leu-Met-NH2
